These results are taken from article PMC7456325, “Diversity in the intrinsic apoptosis pathway of nematodes” (Communications Biology, 2020).

For orientation: Kd means the constant that tells how readily two partners part at equilibrium. Read a low Kd as higher affinity.

The target of assay [1] is T1, T. suis A ΔC28 (Trichuris suis BCL-2-like protein A, C-terminal truncation) (Trichuris suis, labelled with the NHS RED NanoTemper labelling kit (MO-L001) for MST).
T1 chain: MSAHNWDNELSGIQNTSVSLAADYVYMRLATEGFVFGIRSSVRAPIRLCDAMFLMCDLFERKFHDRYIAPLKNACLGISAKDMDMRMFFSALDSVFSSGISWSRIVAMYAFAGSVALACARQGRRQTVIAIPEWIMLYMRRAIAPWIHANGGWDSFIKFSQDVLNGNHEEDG
Briefly: MST; Monolith NT.115; protein labelled with NHS RED, unlabelled synthetic peptide diluted in phosphate-buffered saline; 30 min incubation; 25 °C; 40% LED and 40% MST power; three independent experiments, single binding model. As to conditions: both partners purified.

The target in assay [2] is BCL-XLΔC24 (labelled with the NHS RED NanoTemper labelling kit (MO-L001) for MST). Described as above. To be noted: both partners purified.
Sequence of BCL-XLΔC24 (labelled with the NHS RED NanoTemper labelling kit (MO-L001) for MST) (chain, as listed by the source mutant): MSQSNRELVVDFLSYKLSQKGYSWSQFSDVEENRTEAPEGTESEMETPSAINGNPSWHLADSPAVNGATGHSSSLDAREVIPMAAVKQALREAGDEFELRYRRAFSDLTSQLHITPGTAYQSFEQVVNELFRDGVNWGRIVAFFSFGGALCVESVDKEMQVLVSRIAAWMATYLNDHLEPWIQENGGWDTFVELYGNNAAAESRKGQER

B1: T. suis protein A BH3 peptide (peptide)
peptide: SVRAPIRLCDAMFLMCDLFERKFHDR
notes: BH3 domain of Trichuris suis BCL-2-like protein A (ID# BCL_199); also called T. suis A BH3 domain peptide; source: synthetic peptide (Mimotopes, Australia, >90% purity)
B1: in assay [1], the Kd is more than 50 µM.

B2: BAK BH3 peptide (peptide)
peptide: PSSTMGQVGRQLAIIGDDINRRYDSE
notes: BH3 domain of BAK; also called BAK BH3 domain; source: synthetic peptide (Mimotopes, Australia, >90% purity)
In turn, B2 showed a Kd in assay [2] of 0.178 ± 0.034 µM.

B3: T. suis protein B BH3 peptide (peptide)
peptide: PILPEVNKTALCMRAMGEVFEDRYKT
notes: BH3 domain of Trichuris suis BCL-2-like protein B (ID# BCL_257); also called T. suis B BH3 domain peptide; source: synthetic peptide (Mimotopes, Australia, >90% purity)
As for B3, in assay [1], the Kd is more than 50 µM.
